Laboratory results reported in PMC5187420, “Structural insights into ribosomal rescue by Dom34 and Hbs1 at near-atomic resolution” (Nature Communications, 2016).

Target: T1, Hbs1 (S. cerevisiae, UniProt P32769 1-611)
T1 construct: Hbs1, S. cerevisiae, eEF1A-like GTPase; N-terminal domain is seen in the map, linker aa 78-140 disordered; source: E. coli BL21 (DE3), purified (Nickel-NTA, size-exclusion chromatography)
T1 sequence (looked up): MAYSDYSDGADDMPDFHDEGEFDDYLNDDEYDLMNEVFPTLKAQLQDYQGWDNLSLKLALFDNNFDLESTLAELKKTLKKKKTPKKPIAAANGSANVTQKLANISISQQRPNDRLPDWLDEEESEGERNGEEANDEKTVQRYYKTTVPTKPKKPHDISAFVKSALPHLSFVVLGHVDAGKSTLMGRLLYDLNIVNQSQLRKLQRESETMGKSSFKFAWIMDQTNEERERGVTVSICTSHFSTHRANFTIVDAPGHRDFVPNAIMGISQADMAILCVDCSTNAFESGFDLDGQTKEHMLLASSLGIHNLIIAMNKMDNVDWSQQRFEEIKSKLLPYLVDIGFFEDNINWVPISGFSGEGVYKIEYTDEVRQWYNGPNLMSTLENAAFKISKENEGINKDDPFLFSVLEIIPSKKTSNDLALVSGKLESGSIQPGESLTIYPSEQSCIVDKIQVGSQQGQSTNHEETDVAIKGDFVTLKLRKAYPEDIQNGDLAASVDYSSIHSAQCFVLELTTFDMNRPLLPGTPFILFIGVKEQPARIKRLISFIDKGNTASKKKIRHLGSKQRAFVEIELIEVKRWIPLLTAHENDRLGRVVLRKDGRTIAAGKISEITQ
Assay: cryo-EM structure; Dom34 and Hbs1 (50 pmol each) pre-incubated with 1 mM GMPPNP in binding buffer (30 mM Hepes pH 7.5), 20 min at 30 °C, then combined with 10 pmol reassociated S. cerevisiae 80S ribosomes programmed with nonstop mRNA and AcPhe-tRNAPhe, 15 min at 30 °C; reconstruction at 3.3 Å
Conditions: both partners purified

binding result: binds
B1: Dom34 (natural protein, S. cerevisiae)
chain: MKVISLKKDSFNKGGAVITLLPEDKEDLFTVYQIVDKDDELIFKKKFTSKLDEAGKKKSTDLVKLKIKVISEDFDMKDEYLKYKGVTVTDESGASNVDIPVGKYLSFTLDYVYPFTIIKQNFNKFMQKLLNEACNIEYKSDTAAVVLQEGIAHVCLVTSSSTILKQKIEYSMPKKKRTTDVLKFDEKTEKFYKAIYSAMKKDLNFDKLKTIILCSPGFYAKILMDKIFQYAEEEHNKKILDNKGMFFIAHCSTGYLQGINEVLKNPLYASKLQDTKYSKEIMVMDEFLLHLNKDDDKAWYGEKEVVKAAEYGAISYLLLTDKVLHSDNIAQREEYLKLMDSVESNGGKALVLSTLHSLGEELDQLTGIACILKYPLPDLDEDDGEE
notes: Dom34, S. cerevisiae; also called Pelota in mammals; source: E. coli BL21 (DE3), purified (Nickel-NTA, size-exclusion chromatography)
